From US20180037649A1 (OSAKA UNIVERSITY, published 2018)
Values belong to the binder of their own block, whether it stands above or below them.

How the values were obtained:
[1] = molecular target: p85α of S2-CP8 cells (endogenous) (human, UniProt P27986 2-724); test: co-IP with anti-CKAP4 antibody from S2-CP8 cell lysate (control shRNA or Dkk1 shRNA), immunoblot
Description: A lysate (Input) of S2-CP8 cells in which control shRNA or Dkk1 shRNA (Dkk1) was stably expressed was prepared. The lysate was immunoprecipitated with an anti-CKAP4 antibody. Subsequently, the cell lysate (Input) and the immunoprecipitates (IP) were subjected to the detection of p85α, p110β, CKAP4 and Dkk1 using an anti-p85α antibody, an anti-p110β antibody, an anti-CKAP4 antibody and an anti-Dkk1 antibody, respectively.

[2] = molecular target: T1, deletion mutant CKAP4-HA ΔLZ (human, UniProt Q07065 1-602); test: co-IP with anti-FLAG antibody from X293T/Dkk1-FLAG cell lysate, immunoblot with anti-HA antibody
T1 construct: not shown: HA tag
T1 sequence: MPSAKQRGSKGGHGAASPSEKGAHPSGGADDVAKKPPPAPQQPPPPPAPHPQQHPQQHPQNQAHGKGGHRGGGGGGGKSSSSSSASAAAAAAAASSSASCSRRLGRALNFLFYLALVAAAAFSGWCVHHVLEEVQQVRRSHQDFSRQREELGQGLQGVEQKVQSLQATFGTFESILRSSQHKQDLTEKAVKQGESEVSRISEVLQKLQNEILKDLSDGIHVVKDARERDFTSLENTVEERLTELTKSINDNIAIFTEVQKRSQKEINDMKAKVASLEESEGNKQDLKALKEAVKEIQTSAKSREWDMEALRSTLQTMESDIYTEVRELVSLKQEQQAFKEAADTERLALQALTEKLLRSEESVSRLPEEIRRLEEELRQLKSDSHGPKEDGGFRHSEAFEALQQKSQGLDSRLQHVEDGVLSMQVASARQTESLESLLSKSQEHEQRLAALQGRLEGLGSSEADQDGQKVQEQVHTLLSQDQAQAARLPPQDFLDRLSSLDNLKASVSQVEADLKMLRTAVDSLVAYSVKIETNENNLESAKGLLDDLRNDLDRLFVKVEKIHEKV
Excerpt: A lysate (Input) of X293T/Dkk1-FLAG cells in which wild-type CKAP4-HA (WT) or a deletion mutant CKAP4-HA (ΔLZ) was transiently expressed was immunoprecipitated with an anti-FLAG antibody, and then the cell lysate (Input) and the immunoprecipitates (IP) were subjected to the detection of HA and Dkk1 using an anti-HA antibody and an anti-Dkk1 antibody, respectively. The results are shown in the lower right panel in FIG. 2 (e). […] Namely, it was confirmed that a CRD-1 domain located on the N-terminal side of Dkk1 and a leucine zipper domain of CKAP4 were necessary for the binding between Dkk1 and CKAP4.

Chain of p85α of S2-CP8 cells (endogenous) (P27986 2-724): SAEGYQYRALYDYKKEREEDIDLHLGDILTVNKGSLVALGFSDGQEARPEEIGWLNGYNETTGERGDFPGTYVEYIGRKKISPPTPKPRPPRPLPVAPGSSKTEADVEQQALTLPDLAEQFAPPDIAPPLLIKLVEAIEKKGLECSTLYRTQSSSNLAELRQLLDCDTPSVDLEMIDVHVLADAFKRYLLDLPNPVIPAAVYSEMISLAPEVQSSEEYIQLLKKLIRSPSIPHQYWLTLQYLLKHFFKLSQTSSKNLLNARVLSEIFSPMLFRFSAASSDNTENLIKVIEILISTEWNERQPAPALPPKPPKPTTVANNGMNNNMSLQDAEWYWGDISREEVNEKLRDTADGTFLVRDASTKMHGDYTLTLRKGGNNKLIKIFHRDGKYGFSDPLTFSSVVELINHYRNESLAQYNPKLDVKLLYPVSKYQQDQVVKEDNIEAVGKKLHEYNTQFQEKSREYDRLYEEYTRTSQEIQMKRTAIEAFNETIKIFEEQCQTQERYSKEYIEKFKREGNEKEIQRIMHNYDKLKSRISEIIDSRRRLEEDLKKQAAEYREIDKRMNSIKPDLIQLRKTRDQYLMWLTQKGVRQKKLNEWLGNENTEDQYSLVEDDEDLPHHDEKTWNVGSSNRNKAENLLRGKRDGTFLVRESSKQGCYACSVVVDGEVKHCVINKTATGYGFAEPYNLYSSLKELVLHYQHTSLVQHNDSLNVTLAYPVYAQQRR

binding result [1]: binds
B1: CKAP4 of S2-CP8 cells (endogenous) (receptor)
chain: MPSAKQRGSKGGHGAASPSEKGAHPSGGADDVAKKPPPAPQQPPPPPAPHPQQHPQQHPQNQAHGKGGHRGGGGGGGKSSSSSSASAAAAAAAASSSASCSRRLGRALNFLFYLALVAAAAFSGWCVHHVLEEVQQVRRSHQDFSRQREELGQGLQGVEQKVQSLQATFGTFESILRSSQHKQDLTEKAVKQGESEVSRISEVLQKLQNEILKDLSDGIHVVKDARERDFTSLENTVEERLTELTKSINDNIAIFTEVQKRSQKEINDMKAKVASLEESEGNKQDLKALKEAVKEIQTSAKSREWDMEALRSTLQTMESDIYTEVRELVSLKQEQQAFKEAADTERLALQALTEKLLRSEESVSRLPEEIRRLEEELRQLKSDSHGPKEDGGFRHSEAFEALQQKSQGLDSRLQHVEDGVLSMQVASARQTESLESLLSKSQEHEQRLAALQGRLEGLGSSEADQDGLASTVRSLGETQLVLYGDVEELKRSVGELPSTVESLQKVQEQVHTLLSQDQAQAARLPPQDFLDRLSSLDNLKASVSQVEADLKMLRTAVDSLVAYSVKIETNENNLESAKGLLDDLRNDLDRLFVKVEKIHEKV
notes: Used in lysates (IP, immunoblot) and on unfixed cells (staining)

binding result [2]: no binding
B2: Dkk1-FLAG (wild-type human Dkk1 tagged with FLAG at the C-terminal) (ligand, UniProt O94907 32-266, looked up)
chain: TLNSVLNSNAIKNLPPPLGGAAGHPGSAVSAAPGILYPGGNKYQTIDNYQPYPCAEDEECGTDEYCASPTRGGDAGVQICLACRKRRKRCMRHAMCCPGNYCKNGICVSSDQNHFRGEIEETITESFGNDHSTLDGYSRRTTLSSKMYHTKGQEGSVCLRSSDCASGLCCARHFWSKICKPVLKEGQVCTKHRRKGSHGLEIFQRCYCGEGLSCRIQKDHHQASNSSRLHTCQRH
notes: Expressed in MDCK or X293T cells; pulled down from cell lysates with an anti-FLAG antibody; also called WT-FLAG; wild-type Dkk1-FLAG (WT); not shown: FLAG tag at the C-terminal
